Measurements published in the Immune Epitope Database (IEDB).

Tests used:
Experiment in all cases: IEDB peptide-MHC binding, purified MHC/competitive/radioactivity; filed as Kd, often an IC50 or EC50 that approximates it; ≥ and ≤ were set here for values at or beyond the usual limits of such assays
HLA-A*02:02 = conditions: source organism: Vaccinia virus WR
HLA-A*02:03 = biological target: HLA-A*02:03
HLA-A*02:06 = biological target: HLA-A*02:06
HLA-A*03:01 = biological target: HLA-A*03:01
HLA-A*11:01 = biological target: HLA-A*11:01
HLA-A*31:01 = biological target: HLA-A*31:01
HLA-A*33:01 = biological target: HLA-A*33:01
HLA-A*68:01 = biological target: HLA-A*68:01
[1] = source organism: Vaccinia virus WR
[2] = source organism: SARS coronavirus Tor2
[3] = source organism: Mammarenavirus machupoense
[4] = source organism: Dengue virus 2 Jamaica/1409/1983
[5] = source organism: Mammarenavirus guanaritoense
[6] = source organism: Lymphocytic choriomeningitis virus (strain Armstrong)
[7] = source organism: Vaccinia virus Copenhagen

## QTGINNVQSL
HLA-A*02:02
  Kd: ≥ 20.2 µM
HLA-A*02:03; [1]
  Kd: ≥ 24.4 µM
HLA-A*02:06; [1]
  Kd: ≥ 54 µM

## RINLLVQYGA
HLA-A*02:02
  Kd: 10.3 µM
HLA-A*02:03; [1]
  Kd: 15.3 µM
HLA-A*02:06; [1]
  Kd: 7.65 µM

## RQVSVKLLI
HLA-A*02:02
  Kd: 17.9 µM
HLA-A*02:03; [1]
  Kd: 0.254 µM
HLA-A*02:06; [1]
  Kd: 0.000135 µM

## SAKQLRTRIR
HLA-A*03:01; [1]
  Kd: ≥ 70.1 µM
HLA-A*11:01; [1]
  Kd: ≥ 45.5 µM
HLA-A*31:01; [1]
  Kd: 1.1 µM
HLA-A*33:01; [1]
  Kd: 17.3 µM
HLA-A*68:01; [1]
  Kd: ≥ 28.8 µM

## SASAFFGMSR
HLA-A*03:01; [2]
  Kd: 0.966 µM
HLA-A*11:01; [2]
  Kd: 0.0119 µM
HLA-A*31:01; [2]
  Kd: 0.00948 µM
HLA-A*33:01; [2]
  Kd: 0.121 µM
HLA-A*68:01; [2]
  Kd: 0.01 µM

## SIFPANINDK
HLA-A*03:01; [1]
  Kd: 1.22 µM
HLA-A*11:01; [1]
  Kd: 0.00748 µM
HLA-A*31:01; [1]
  Kd: ≥ 70 µM
HLA-A*33:01; [1]
  Kd: ≥ 46 µM
HLA-A*68:01; [1]
  Kd: 0.121 µM

## SIYIAVANCV
HLA-A*02:02
  Kd: 0.534 µM
HLA-A*02:03; [1]
  Kd: 0.0627 µM
HLA-A*02:06; [1]
  Kd: 1 µM

## SLETVKMGA
HLA-A*02:02
  Kd: 11.2 µM
HLA-A*02:03; [1]
  Kd: 0.547 µM
HLA-A*02:06; [1]
  Kd: ≥ 23.4 µM

## SLIGSKTQI
HLA-A*02:03; source organism: Homo sapiens
  Kd: 0.0238 µM
HLA-A*02:06; source organism: Homo sapiens
  Kd: 10.6 µM

## SLRCGACIRR
HLA-A*03:01; [2]
  Kd: 0.265 µM
HLA-A*11:01; [2]
  Kd: 0.963 µM
HLA-A*31:01; [2]
  Kd: 0.0163 µM
HLA-A*33:01; [2]
  Kd: 0.0895 µM
HLA-A*68:01; [2]
  Kd: 0.915 µM

## SLVSKHWEL
HLA-A*02:02
  Kd: 0.00116 µM
HLA-A*02:03; [1]
  Kd: 0.036 µM
HLA-A*02:06; [1]
  Kd: 0.0349 µM

## SMNVAVIDK
HLA-A*03:01; [1]
  Kd: ≥ 67.7 µM
HLA-A*11:01; [1]
  Kd: 0.000278 µM
HLA-A*31:01; [1]
  Kd: 0.612 µM
HLA-A*33:01; [1]
  Kd: 7.08 µM
HLA-A*68:01; [1]
  Kd: 4.88 µM

## SQASSRSSSR
HLA-A*03:01; [2]
  Kd: 7.97 µM
HLA-A*11:01; [2]
  Kd: 1.53 µM
HLA-A*31:01; [2]
  Kd: 0.47 µM
HLA-A*33:01; [2]
  Kd: 1.32 µM
HLA-A*68:01; [2]
  Kd: 0.4 µM

## SSFDYCGTDH
HLA-A*03:01; [3]
  Kd: ≥ 70 µM
HLA-A*11:01; [3]
  Kd: ≥ 69.7 µM
HLA-A*31:01; [3]
  Kd: ≥ 31.8 µM
HLA-A*33:01; [3]
  Kd: ≥ 42 µM
HLA-A*68:01; [3]
  Kd: ≥ 41.8 µM

## SSRVDRYSKK
HLA-A*03:01; [1]
  Kd: 0.285 µM
HLA-A*11:01; [1]
  Kd: 0.332 µM
HLA-A*31:01; [1]
  Kd: 0.835 µM
HLA-A*33:01; [1]
  Kd: ≥ 29.6 µM
HLA-A*68:01; [1]
  Kd: 3.04 µM

## STFNMWREIL
HLA-A*02:02
  Kd: 3.12 µM
HLA-A*02:03; [1]
  Kd: 0.907 µM
HLA-A*02:06; [1]
  Kd: 3.36 µM

## STTENAAYQV
HLA-A*02:02
  Kd: 0.928 µM
HLA-A*02:03; [1]
  Kd: 4.7 µM
HLA-A*02:06; [1]
  Kd: 0.101 µM

## SVKSFEIDK
HLA-A*03:01; [2]
  Kd: 1.56 µM
HLA-A*11:01; [2]
  Kd: 0.137 µM
HLA-A*31:01; [2]
  Kd: 1.11 µM
HLA-A*33:01; [2]
  Kd: 12.2 µM
HLA-A*68:01; [2]
  Kd: 0.729 µM

## TAFQHQNSKK
HLA-A*03:01; [2]
  Kd: 0.332 µM
HLA-A*11:01; [2]
  Kd: 0.139 µM
HLA-A*31:01; [2]
  Kd: ≥ 54.3 µM
HLA-A*33:01; [2]
  Kd: ≥ 70 µM
HLA-A*68:01; [2]
  Kd: 0.0161 µM

## TAVCMKCFK
HLA-A*03:01; [1]
  Kd: 0.211 µM
HLA-A*11:01; [1]
  Kd: 0.0102 µM
HLA-A*31:01; [1]
  Kd: 0.448 µM
HLA-A*33:01; [1]
  Kd: 4.46 µM
HLA-A*68:01; [1]
  Kd: 0.0113 µM

## TFIMLEGETK
HLA-A*03:01; [1]
  Kd: 0.0388 µM
HLA-A*11:01; [1]
  Kd: 0.0118 µM
HLA-A*31:01; [1]
  Kd: 0.816 µM
HLA-A*33:01; [1]
  Kd: 3.42 µM
HLA-A*68:01; [1]
  Kd: 0.176 µM

## TLDQLEDSEY
HLA-A*03:01; [1]
  Kd: 8.62 µM
HLA-A*11:01; [1]
  Kd: 1.71 µM
HLA-A*31:01; [1]
  Kd: 14.4 µM
HLA-A*33:01; [1]
  Kd: ≥ 40.3 µM
HLA-A*68:01; [1]
  Kd: 4.07 µM

## TLLATVTGGI
HLA-A*02:03; [4]
  Kd: 0.0128 µM

## TLLGLILFVL
HLA-A*02:02
  Kd: 0.169 µM
HLA-A*02:03; [1]
  Kd: 0.796 µM
HLA-A*02:06; [1]
  Kd: 0.672 µM

## TMEIEDQEYH
HLA-A*03:01; [5]
  Kd: ≥ 70 µM
HLA-A*11:01; [5]
  Kd: ≥ 69.7 µM
HLA-A*31:01; [5]
  Kd: ≥ 70 µM
HLA-A*33:01; [5]
  Kd: ≥ 70 µM
HLA-A*68:01; [5]
  Kd: 8.53 µM

## TQTAGPWHL
HLA-A*02:06; [4]
  Kd: 0.435 µM

## VIEDITFLR
HLA-A*03:01; [1]
  Kd: 1.56 µM
HLA-A*11:01; [1]
  Kd: 0.0546 µM
HLA-A*31:01; [1]
  Kd: 0.0276 µM
HLA-A*33:01; [1]
  Kd: 0.42 µM
HLA-A*68:01; [1]
  Kd: 0.0118 µM

## VSIILANER
HLA-A*03:01; [1]
  Kd: ≥ 78 µM
HLA-A*11:01; [1]
  Kd: 0.0472 µM
HLA-A*31:01; [1]
  Kd: 0.13 µM
HLA-A*33:01; [1]
  Kd: 7.69 µM
HLA-A*68:01; [1]
  Kd: 0.00848 µM

## VTFRERYSYK
HLA-A*03:01; [1]
  Kd: 0.000457 µM
HLA-A*11:01; [1]
  Kd: 0.00319 µM
HLA-A*31:01; [1]
  Kd: 3.36 µM
HLA-A*33:01; [1]
  Kd: 2.48 µM
HLA-A*68:01; [1]
  Kd: 0.00283 µM

## VTMFEALPH
HLA-A*03:01; [6]
  Kd: 0.467 µM
HLA-A*11:01; [6]
  Kd: 0.0156 µM
HLA-A*31:01; [6]
  Kd: ≥ 77.9 µM
HLA-A*33:01; [6]
  Kd: ≥ 77.7 µM
HLA-A*68:01; [6]
  Kd: 18.7 µM

## VVQRCASNK
HLA-A*03:01; [2]
  Kd: 0.663 µM
HLA-A*11:01; [2]
  Kd: 0.639 µM
HLA-A*31:01; [2]
  Kd: 8.26 µM
HLA-A*33:01; [2]
  Kd: ≥ 77.7 µM
HLA-A*68:01; [2]
  Kd: ≥ 48.3 µM

## VVSTGYHFR
HLA-A*03:01; [2]
  Kd: 0.0315 µM
HLA-A*11:01; [2]
  Kd: 0.00855 µM
HLA-A*31:01; [2]
  Kd: 0.00169 µM
HLA-A*33:01; [2]
  Kd: 0.0412 µM
HLA-A*68:01; [2]
  Kd: 0.00734 µM

## YANLDDVYSY
HLA-A*03:01; [1]
  Kd: ≥ 25.7 µM
HLA-A*11:01; [1]
  Kd: 0.0382 µM
HLA-A*31:01; [1]
  Kd: ≥ 33.3 µM
HLA-A*33:01; [1]
  Kd: 15.6 µM
HLA-A*68:01; [1]
  Kd: 1.65 µM

## YLLVKWYKK
HLA-A*03:01; [7]
  Kd: 0.113 µM
HLA-A*11:01; [7]
  Kd: 0.189 µM
HLA-A*31:01; [7]
  Kd: 0.012 µM
HLA-A*33:01; [7]
  Kd: 0.0305 µM
HLA-A*68:01; [7]
  Kd: ≥ 23.4 µM

## YLTMKAIEK
HLA-A*03:01; [1]
  Kd: 0.384 µM
HLA-A*11:01; [1]
  Kd: 0.867 µM
HLA-A*31:01; [1]
  Kd: 11.4 µM
HLA-A*33:01; [1]
  Kd: 9.83 µM
HLA-A*68:01; [1]
  Kd: 1.01 µM

## YSHLLPTQR
HLA-A*03:01; [1]
  Kd: 4.03 µM
HLA-A*11:01; [1]
  Kd: 1.17 µM
HLA-A*31:01; [1]
  Kd: 0.023 µM
HLA-A*33:01; [1]
  Kd: 0.892 µM
HLA-A*68:01; [1]
  Kd: 0.0255 µM
